The source of these data is article PMC11775607 (Nucleic Acids Research, 2025).

This experiment addresses recombinant WBSCR16-GST fusion protein (mouse, UniProt Q9CYF5 35-461). Nature of the experiment: SPR. (In SPR one partner is held on a chip, and binding of the other changes the refractive index at the surface.)

As usually defined, the Kd is a measure of binding affinity in units of concentration.

B1: recombinant MRPP3-His fusion protein (230–583 amino acids of MRPP3) (domain or fragment)
chain: LLLLEDIKKVITPSKKNYNDCIQGALLHQDVNTAWNLYQELLGHDIVPMLETLKAFFDFGKDIKDDNYSNKLLDILSYLRNNQLYPGESFAHSIKTWFESVPGKQWKGQFTTVRKSGQCSGCGKTIESIQLSPEEYECLKGKIMRDVIDGGDQYRKTTPQELKRFENFIKSRPPFDVVIDGLNVAKMFPKVRESQLLLNVVSQLAKRNLRLLVLGRKHMLRRSSQWSRDEMEEVQKQASCFFADDISEDDPFLLYATLHSGNHCRFITRDLMRDHKACLPDAKTQRLFFKWQQGHQLAIVNRFPGSKLTFQRILSYDTVVQTTGDSWHIPYDEDLVERCSCEVPTKWLCLHQKT
Take B1: the dissociation constant (Kd) came out at 37 nM.
